Test results published in patent US7252958 (Novartis, dated 2007).

Target: the molecule itself
Assay: X-ray crystal structure of CD81-LEL

B1: CD81-LEL (large extracellular loop of human CD81, amino acids 113-201) with C-terminal His-tag (receptor)
chain: FVNKDQIAKDVKQFYDQALQQAVVDDDANNAKAVVKTFHETLDCCGSSTLTALTTSVLKNNLCPSGSNIISNLFKEDCHQKIDDLFSGKHHHHHH
notes: Made in E. coli as a fusion with S. aureus Protein A and released by protease (thrombin) cleavage; it forms a homodimer in the crystal, with two chains per asymmetric unit; also called LEL-(His)6; hCD81-LEL
  binding result: binds
